Experimental data taken from patent publication US20060205649A1.

Assays:
[1] = biological target: NRSF (endogenous, JTC-19 rat lung fibroblasts) (rat) (UniProt O54963); assay: cell-based or functional assay
MYC-tagged NRSF protein = assay: co-immunoprecipitation (anti-KT3) of HEK cell protein incubated with 0-1000 nM NADH, anti-MYC Western blot; the varied concentration is that of NADH, not of a protein
Sequence of MYC-tagged NRSF protein (Q13127 whole entry): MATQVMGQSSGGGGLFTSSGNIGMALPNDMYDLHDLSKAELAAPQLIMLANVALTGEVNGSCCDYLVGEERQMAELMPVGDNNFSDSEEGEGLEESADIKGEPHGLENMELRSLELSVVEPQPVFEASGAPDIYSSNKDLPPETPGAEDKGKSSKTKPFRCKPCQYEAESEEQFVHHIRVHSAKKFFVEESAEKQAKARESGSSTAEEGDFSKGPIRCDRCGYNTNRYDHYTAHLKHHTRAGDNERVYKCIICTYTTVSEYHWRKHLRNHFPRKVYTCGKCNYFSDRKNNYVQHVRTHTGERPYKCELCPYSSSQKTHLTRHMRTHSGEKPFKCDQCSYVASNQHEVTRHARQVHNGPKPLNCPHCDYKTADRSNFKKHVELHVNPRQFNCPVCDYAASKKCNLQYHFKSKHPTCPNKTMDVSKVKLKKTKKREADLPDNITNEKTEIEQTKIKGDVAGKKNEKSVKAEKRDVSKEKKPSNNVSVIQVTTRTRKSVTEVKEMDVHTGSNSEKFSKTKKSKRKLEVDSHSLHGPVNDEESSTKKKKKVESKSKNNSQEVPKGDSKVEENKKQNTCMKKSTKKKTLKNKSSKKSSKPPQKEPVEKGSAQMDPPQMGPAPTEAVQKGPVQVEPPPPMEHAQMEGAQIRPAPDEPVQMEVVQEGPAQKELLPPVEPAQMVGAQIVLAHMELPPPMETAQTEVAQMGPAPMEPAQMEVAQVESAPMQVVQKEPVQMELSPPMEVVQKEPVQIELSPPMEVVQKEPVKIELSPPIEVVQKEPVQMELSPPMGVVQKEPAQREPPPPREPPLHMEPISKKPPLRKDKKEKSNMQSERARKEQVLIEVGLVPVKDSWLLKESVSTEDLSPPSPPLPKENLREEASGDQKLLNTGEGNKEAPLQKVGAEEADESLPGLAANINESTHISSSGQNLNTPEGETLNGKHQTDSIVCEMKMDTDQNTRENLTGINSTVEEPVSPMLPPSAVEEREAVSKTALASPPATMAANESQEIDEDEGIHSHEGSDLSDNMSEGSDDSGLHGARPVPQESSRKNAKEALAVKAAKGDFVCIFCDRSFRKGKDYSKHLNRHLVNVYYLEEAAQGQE

Sequence of KT3-tagged CtBP2 (P56546 whole entry): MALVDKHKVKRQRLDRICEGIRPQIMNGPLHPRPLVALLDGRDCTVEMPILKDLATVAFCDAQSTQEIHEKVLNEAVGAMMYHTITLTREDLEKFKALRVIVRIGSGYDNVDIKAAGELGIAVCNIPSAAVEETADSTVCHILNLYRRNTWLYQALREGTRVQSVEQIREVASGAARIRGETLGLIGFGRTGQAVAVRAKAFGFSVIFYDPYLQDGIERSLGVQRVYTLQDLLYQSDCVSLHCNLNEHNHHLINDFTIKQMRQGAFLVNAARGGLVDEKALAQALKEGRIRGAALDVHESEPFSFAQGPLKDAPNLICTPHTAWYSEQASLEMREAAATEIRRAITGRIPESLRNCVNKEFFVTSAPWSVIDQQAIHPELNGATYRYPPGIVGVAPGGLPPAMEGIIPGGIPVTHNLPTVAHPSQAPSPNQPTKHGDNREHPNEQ
Sequence of NRSF (endogenous, JTC-19 rat lung fibroblasts) (rat) (O54963 whole entry): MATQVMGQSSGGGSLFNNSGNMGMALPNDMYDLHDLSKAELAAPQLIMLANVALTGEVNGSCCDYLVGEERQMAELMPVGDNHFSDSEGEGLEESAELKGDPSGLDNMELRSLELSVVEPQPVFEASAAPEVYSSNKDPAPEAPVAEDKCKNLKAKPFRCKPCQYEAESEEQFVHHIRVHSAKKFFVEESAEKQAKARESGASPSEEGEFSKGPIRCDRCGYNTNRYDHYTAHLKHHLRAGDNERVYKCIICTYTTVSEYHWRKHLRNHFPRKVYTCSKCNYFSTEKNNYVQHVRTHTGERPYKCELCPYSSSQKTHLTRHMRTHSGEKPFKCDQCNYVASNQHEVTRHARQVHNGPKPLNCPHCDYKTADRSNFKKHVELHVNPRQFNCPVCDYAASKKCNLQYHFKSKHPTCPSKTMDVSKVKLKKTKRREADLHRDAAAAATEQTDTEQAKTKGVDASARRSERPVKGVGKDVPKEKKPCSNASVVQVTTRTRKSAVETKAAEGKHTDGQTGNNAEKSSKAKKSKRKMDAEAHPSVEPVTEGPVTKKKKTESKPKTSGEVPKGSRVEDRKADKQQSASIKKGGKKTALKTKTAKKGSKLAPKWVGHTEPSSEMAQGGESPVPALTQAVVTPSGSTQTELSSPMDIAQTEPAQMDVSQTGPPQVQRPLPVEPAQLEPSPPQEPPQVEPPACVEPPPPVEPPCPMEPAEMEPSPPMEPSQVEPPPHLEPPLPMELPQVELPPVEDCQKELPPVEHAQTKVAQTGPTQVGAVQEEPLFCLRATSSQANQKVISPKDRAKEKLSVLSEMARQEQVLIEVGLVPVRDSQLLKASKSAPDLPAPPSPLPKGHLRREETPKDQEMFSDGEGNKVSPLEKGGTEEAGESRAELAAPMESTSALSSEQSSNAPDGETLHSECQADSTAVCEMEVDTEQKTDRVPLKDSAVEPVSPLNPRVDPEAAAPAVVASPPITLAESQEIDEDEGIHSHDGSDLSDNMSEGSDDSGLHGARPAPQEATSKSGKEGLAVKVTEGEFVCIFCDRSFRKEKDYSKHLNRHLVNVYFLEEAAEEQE

Substance	amount of CtBP recruited to CHRM4, the NRSF target gene (ChIP, JTC-19 cells grown with 2-DG or glucose) [1]	NADH concentration at half maximal binding of CtBP to NRSF (MYC-tagged NRSF protein)
CtBP (endogenous, JTC-19 rat lung fibroblasts) (from UniProt F7FG31 1-441)	5 fold	
KT3-tagged CtBP2		70 nM
